In patent US20210214458A1 (ONCOC4, published 2021):
Residue numbers refer to the chain shown, from its start.

T1: N-SA-CD24 (CD24 stripped of N-glycan and sialic acid modifications) (not fully specified; N-glycans and sialic acid removed; O-glycans present; biotinylated in the Jurkat bispecific assays)
T1 construct: also called SA-N-CD24; SA-N-
T1 chain: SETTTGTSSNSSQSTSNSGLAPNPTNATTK

B1: H1L3 (humanized PP6373) (antibody, V domains shown)
VH: EVQFVESGGGLVQPGGSLKLSCAASGVTFSEAWMDWVRQASGKGLEWVGEIRDKPNSYVTYYAESVKGRFTISRDDSKNTAYLQMNSLKTEDTAVYYCTGAMDYWGQGTLVTVSS
VL: DIVMTQTPLSLSVTIGQPASISCKSSQSLLYSNGKTYLNWLLQKPGQSPKRLIYQVSKLDPGIPDRFSGSGSETDFTLKISRVEAEDVGIYYCMQGSSLPWTFGGGTKVEIKR
notes: Tested as expression medium of co-transfected 293 cells
B2: H4L3 (humanized PP6373) (antibody, V domains shown)
VH: B1 VH with G49A, N79S, A81V, V95I
VL: B1 VL
notes: as for B1
B3: PP6373 (affinity matured chimeric anti-CD24 antibody) (antibody, human IgG1, kappa, V domains shown)
VH: EVKFEESGGGLVQPGGSIKLSCAASGVTFSEAWMDWVRQSPEKGLEWVAEIRDKPNSYVTYYAESVKGRFTISRDDSKSRVYLQMNNLRTEDTGIYYCTGAMDYWGQGTSVTVSS
VL: B1 VL with L42Q, K44R, V88L, V109L
notes: also called P3050.ComF1.2H1; H4069 + L4071

Tests used:
CD24-GST fusion protein = molecular target: T2, CD24-GST fusion protein; assay: ELISA on coated CD24-GST with expression media, relative to chimeric PP6373 (FIG. 28)
T2 construct: also called biotinylated CD24-GST; not shown: GST (glutathione S-transferase) fusion partner
Protocol: To select the best working combination of HuVH and HuVL for CD24 binding, different combinations were co-transfected into 293 cells for 72 hrs. Two ELISAs are then performed with expression media. ELISA 1: a 96 well plate was coated with purified goat-anti-human polyclonal IgG (GAH) and, after blocking, expression media or purified control IgGs were added, and goat-anti-human IgG-HRP was used as detection antibody. ELISA 2: a 96 well plate was coated with CD24-GST protein and, after blocking, expression media or purified control IgGs were added, and goat-anti-human IgG-HRP was used as detection antibody.

[1] = molecular target: T1, N-SA-CD24 (CD24 stripped of N-glycan …); assay: ELISA titration on coated Fc removed CD24 treated with NanA + N-glycanase (FIG. 8)

Binder	binding result (CD24-GST fusion protein)	fold increase of binding against the parental antibody [1] [fold]
B1	binds	–
B2	binds	–
B3	–	~100
